Test results: patent publication US20180155451A1 (published 2018)
Substitutions are numbered along the chain they refer to.

T1: FcγRIIa H type extracellular domain with C-terminal His tag (human, UniProt P12318 34-217)
T1 construct: extracellular domain; also called FcgRIIa H; FcgRIIaH; not shown: His tag at the C terminus
T1 sequence (looked up): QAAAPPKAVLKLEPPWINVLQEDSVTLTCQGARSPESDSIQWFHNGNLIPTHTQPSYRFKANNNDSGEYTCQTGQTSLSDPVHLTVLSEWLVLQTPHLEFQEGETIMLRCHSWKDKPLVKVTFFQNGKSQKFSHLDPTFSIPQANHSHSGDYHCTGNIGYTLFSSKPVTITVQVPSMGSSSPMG

T2: FcγRIIb extracellular domain with C-terminal His tag (human, UniProt P31994 43-217)
T2 construct: extracellular domain; also called FcgRIIb; 2b; not shown: His tag at the C terminus
T2 sequence (looked up): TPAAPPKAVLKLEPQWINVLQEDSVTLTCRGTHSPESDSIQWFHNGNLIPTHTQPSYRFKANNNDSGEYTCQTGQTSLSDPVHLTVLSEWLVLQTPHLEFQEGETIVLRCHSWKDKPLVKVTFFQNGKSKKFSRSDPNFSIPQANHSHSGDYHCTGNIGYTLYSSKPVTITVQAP

T3: FcγRIIa R type extracellular domain with C-terminal His tag (human, UniProt P12318 34-217)
T3 construct: extracellular domain; also called FcgRIIa R; FcgRIIaR; not shown: His tag at the C terminus
T3 sequence (looked up): T1 sequence (looked up) with H134R

B1: H240-FA009/H240-FB001/L73-k0 (antibody, human IgG1, kappa)
heavy 1: QDQLVQSGAEVKKPGASVKVSCKASGFNIKDTYIQWVRQAPGQGLEWMGRIDPLRKQTKYREKFEGRVTITADTSTNTAYMELSSLRSEDTAVYYCVRSGREFDYWGQGTLVTVSSASTKGPSVFPLAPSSKSTSGGTAALGCLVKDYFPEPVTVSWNSGALTSGVHTFPAVLQSSGLYSLSSVVTVPSSSLGTKTYICNVNHKPSNTKVDKKVEPKSCDKTHTCPPCPAPEYYWGPSVFLFPPKPKDTLMISRTPEVTCVVVDVSDEEPEVKFNWYVDGVEVHNAKTKPREEQYNATYRVVSVLTVLHQDWLNGKEYKCKVSNKALPAPIEKTISKAKGQPREPQVYTLPPSRKEMTKNQVSLTCLVKGFYPSDIAVEWESNGQPENNYKTTPPVLDSDGSFFLYSKLTVDKSRWQQGNVFSCSVMHEALHNRYTQKSLSLSP
heavy 2: QDQLVQSGAEVKKPGASVKVSCKASGFNIKDTYIQWVRQAPGQGLEWMGRIDPLRKQTKYREKFEGRVTITADTSTNTAYMELSSLRSEDTAVYYCVRSGREFDYWGQGTLVTVSSASTKGPSVFPLAPSSKSTSGGTAALGCLVKDYFPEPVTVSWNSGALTSGVHTFPAVLQSSGLYSLSSVVTVPSSSLGTQTYICNVNHKPSNTKVDKKVEPKSCDKTHTCPPCPAPELLGGPSVFLFPPKPKDTLMISRTPEVTCVVVDVSHEEPEVQFNWYVDGVEVHNAKTKPREEQYNSTYRVVSVLTVLHQDWLNGKEYKCKVSNDALPMPIEETISKAKGQPREPQVYTLPPSREEMTKNQVSLTCLVKGFYPSDIAVEWESNGQPENNYKTTPPVLDSDGSFFLYSKLTVDKSRWQQGNVFSCSVMHEALHNHYTQESLSLSP
light: DIQMTQSPSSLSASVGDRVTITCRASQDIHKYIAWYQQKPGQAPRLLIQYTSTLQPGVPSRFSGSGSGTDYTFTISSLQPEDIATYYCLQYEQLRTFGGGTKVEIKRTVAAPSVFIFPPSDEQLKSGTASVVCLLNNFYPREAKVQWKVDNALQSGNSQESVTEQDSKDSTYSLSSTLTLSKADYEKHKVYACEVTHQGLSSPVTKSFNRGEC
notes: Heterodimerized anti-EREG IgG1 antibody; A chain altered from H240-AK072, B chain altered from H240-BH076
B2: H240-FA024/H240-FB001/L73-k0 (antibody, human IgG1, kappa)
heavy 1: B1 heavy 1 with I198T, E271K, M357K
heavy 2: B1 heavy 2
light: B1 light
notes: as for B1
B3: H240-FA009/H240-FB016/L73-k0 (antibody, human IgG1, kappa)
heavy 1: B1 heavy 1
heavy 2: B1 heavy 2 with N202D
light: B1 light
notes: as for B1
B4: H240-FA012/H240-FB001/L73-k0 (antibody, human IgG1, kappa)
heavy 1: B1 heavy 1 with E271K
heavy 2: B1 heavy 2
light: B1 light
notes: as for B1
B5: H240-FA009/H240-FB015/L73-k0 (antibody, human IgG1, kappa)
heavy 1: B1 heavy 1
heavy 2: B1 heavy 2 with G136E
light: B1 light
notes: as for B1
B6: H240-FA009/H240-FB020/L73-k0 (antibody, human IgG1, kappa)
heavy 1: B1 heavy 1
heavy 2: B1 heavy 2 with K146E
light: B1 light
notes: as for B1
B7: H240-FA009/H240-FB052/L73-k0 (antibody, human IgG1, kappa)
heavy 1: B1 heavy 1
heavy 2: B1 heavy 2 with K213T
light: B1 light
notes: as for B1
B8: H240-FA009/H240-FB021/L73-k0 (antibody, human IgG1, kappa)
heavy 1: B1 heavy 1
heavy 2: B1 heavy 2 with K287E
light: B1 light
notes: as for B1
B9: H240-FA030/H240-FB001/L73-k0 (antibody, human IgG1, kappa)
heavy 1: B1 heavy 1 with I198T, E271K
heavy 2: B1 heavy 2
light: B1 light
notes: as for B1
B10: H240-FA009/H240-FB047/L73-k0 (antibody, human IgG1, kappa)
heavy 1: B1 heavy 1
heavy 2: B1 heavy 2 with N383E
light: B1 light
notes: as for B1
B11: H240-FA009/H240-FB017/L73-k0 (antibody, human IgG1, kappa)
heavy 1: B1 heavy 1
heavy 2: B1 heavy 2 with G136E, N202D
light: B1 light
notes: as for B1
B12: H240-FA009/H240-FB033/L73-k0 (antibody, human IgG1, kappa)
heavy 1: B1 heavy 1
heavy 2: B1 heavy 2 with G137E
light: B1 light
notes: as for B1
B13: H240-FA024/H240-FB084/L73-k0 (antibody, human IgG1, kappa)
heavy 1: B1 heavy 1 with I198T, E271K, M357K
heavy 2: B1 heavy 2 with G136E, G137S, K146E, S191N, L192F, I198T, N202D, K213T, K287E, N383E
light: B1 light
notes: as for B1

Target: T1, FcγRIIa H type extracellular domain …
Assay: SPR (Biacore), antibody captured on chip, soluble FcgR as analyte; experiment 2
Method: (§1) Antibodies of interest were analyzed for the interaction to FcgR according to the method described in Reference Example 8.
(§2) Analysis of interaction between obj ective antibody and the FcγR was carried out using Biacore T100 (GE Healthcare), Biacore T200, Biacore A100, and Biacore 4000. HBS-EP+ (GE Healthcare) was used as the running buffer, and the measurement temperature was set to 25° C. Chips produced by immobilizing the antigen peptide by the amine coupling method to a Series S sensor Chip CM5 (GE Healthcare), chips produced by allowing preliminarily biotinylated antigen peptides to interact with and immobilize onto a Series S Sensor Chip SA (certified) (GE Healthcare), chips produced by immobilizing Protein L (ACTIGEN, BioVision) to Series S Sencor Chip CM5 (GE Healthcare), or chips produced by immobilizing Protein A/G (Thermo Scientific) to Series S Sencor Chip CM5 (GE Healthcare) were used. Antibodies of interest were captured onto these chips, and allowed to interact to each FcγR diluted with running buffer. To regenerate and repeatedly use the chip, the antibodies captured onto the chip were washed off by reacting 10 mM glycine-HCl, pH 1.5.

Row | Kd [nM] | Binder
1 | 69 | B1
2 | 110 | B2
3 | 70 | B3
4 | 110 | B4
5 | 84 | B5
6 | 64 | B6
7 | 72 | B7
8 | 70 | B8
9 | 120 | B9
10 | 74 | B10
11 | 61 | B11
12 | 80 | B12

Target: T4, FcγRIIIa F type extracellular domain with C-terminal His tag (human, UniProt P08637 17-208)
T4 construct: extracellular domain; also called FcgRIIIa F; FcgRIIIaF; not shown: His tag at the C terminus
Assay: as above
Method: as §1, §2

T4 sequence (P08637 17-208): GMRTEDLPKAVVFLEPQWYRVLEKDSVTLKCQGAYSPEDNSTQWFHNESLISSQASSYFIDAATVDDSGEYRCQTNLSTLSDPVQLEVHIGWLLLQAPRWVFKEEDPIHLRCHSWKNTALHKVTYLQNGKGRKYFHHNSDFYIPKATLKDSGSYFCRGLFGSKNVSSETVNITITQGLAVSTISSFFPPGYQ

Row | Kd [nM] | Binder
13 | 4.3 | B1
14 | 6.7 | B2
15 | 4.4 | B3
16 | 6.3 | B4
17 | 4.2 | B5
18 | 3.9 | B6
19 | 4.3 | B7
20 | 3.7 | B8
21 | 6.4 | B9
22 | 4.4 | B10
23 | 3 | B11
24 | 3.4 | B12

Target: T2, FcγRIIb extracellular domain with …
Assay: as above
Method: as §1, §2

Row | Kd [nM] | Binder
25 | 1300 | B1
26 | 2000 | B2
27 | 1400 | B3
28 | 1700 | B4
29 | 1800 | B5
30 | 1400 | B6
31 | 1400 | B7
32 | 2200 | B8
33 | 3300 | B9
34 | 1700 | B10
35 | 1400 | B11
36 | 1600 | B12

Target: T5, FcγRIa extracellular domain with C-terminal His tag (human, UniProt P12314 16-292)
T5 construct: extracellular domain; also called FcgRI; FcgRIa; not shown: His tag at the C terminus
Assay: as above
Method: as §1, §2

T5 sequence (P12314 16-292): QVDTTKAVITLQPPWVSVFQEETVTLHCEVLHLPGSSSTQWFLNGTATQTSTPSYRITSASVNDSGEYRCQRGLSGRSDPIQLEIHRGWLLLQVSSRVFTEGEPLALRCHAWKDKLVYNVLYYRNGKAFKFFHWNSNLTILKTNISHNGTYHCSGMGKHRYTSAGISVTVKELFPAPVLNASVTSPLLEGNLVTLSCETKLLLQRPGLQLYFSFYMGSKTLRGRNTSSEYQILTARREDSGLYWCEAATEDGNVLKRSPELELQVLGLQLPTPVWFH

Row | Kd [nM] | Binder
37 | 0.17 | B1
38 | 1.8 | B2
39 | 0.13 | B3
40 | 0.076 | B4
41 | 0.093 | B5
42 | 0.12 | B6
43 | 0.051 | B7
44 | 0.051 | B8
45 | 0.036 | B9
46 | 0.05 | B10
47 | 0.11 | B11
48 | 0.12 | B12

Target: T6, FcγRIIIa V type extracellular domain with C-terminal His tag (human, UniProt P08637 17-208)
T6 construct: extracellular domain; also called FcgRIIIa V; FcgRIIIaV; not shown: His tag at the C terminus
Assay: as above
Method: as §1, §2

T6 sequence (P08637 17-208 F176V): as the sequence (P08637 17-208) above, with F160V counted along it

Row | Kd [nM] | Binder
49 | 1.1 | B1
50 | 1.9 | B2
51 | 1 | B3
52 | 1.5 | B4
53 | 1.3 | B5
54 | 1.1 | B6
55 | 0.89 | B7
56 | 0.78 | B8
57 | 1.7 | B9
58 | 1.1 | B10
59 | 0.84 | B11
60 | 1 | B12

Target: T3, FcγRIIa R type extracellular domain …
Assay: as above
Method: as §1, §2

Row | Kd [nM] | Binder
61 | 250 | B1
62 | 370 | B2
63 | 250 | B3
64 | 350 | B4
65 | 330 | B5
66 | 250 | B6
67 | 270 | B7
68 | 280 | B8
69 | 440 | B9
70 | 270 | B10
71 | 230 | B11
72 | 310 | B12

Target: T1, FcγRIIa H type extracellular domain …
Assay: SPR (Biacore), antibody captured on chip, soluble FcgR as analyte; experiment 1
Method: as §1, §2

Row | Kd [nM] | Binder
73 | 79 | B13

Target: T4, FcγRIIIa F type extracellular domain …
Assay: as above
Method: as §1, §2

Row | Kd [nM] | Binder
74 | 4.6 | B13

Target: T2, FcγRIIb extracellular domain with …
Assay: as above
Method: as §1, §2

Row | Kd [nM] | Binder
75 | 1500 | B13

Target: T5, FcγRIa extracellular domain with …
Assay: as above
Method: as §1, §2

Row | Kd [nM] | Binder
76 | 0.095 | B13

Target: T6, FcγRIIIa V type extracellular domain …
Assay: as above
Method: as §1, §2

Row | Kd [nM] | Binder
77 | 1.2 | B13

Target: T3, FcγRIIa R type extracellular domain …
Assay: as above
Method: as §1, §2

Row | Kd [nM] | Binder
78 | 250 | B13
